Positions count from the first letter of the chain named. Numbers in names are those of the source.
T1: human B cell maturation antigen (BCMA), full-length, on cells (human, UniProt Q02223 1-184)
T1 construct: also called CD269; TNFRSF17
T1 sequence: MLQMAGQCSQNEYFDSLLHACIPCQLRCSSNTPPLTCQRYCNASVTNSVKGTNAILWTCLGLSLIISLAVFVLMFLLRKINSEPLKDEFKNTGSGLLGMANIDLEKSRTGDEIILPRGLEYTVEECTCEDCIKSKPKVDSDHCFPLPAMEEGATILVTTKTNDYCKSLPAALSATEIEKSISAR

B1: 16M16A scFv (scFv)
scFv: QPVLTQPPSASASLGASVTLTCTLSSGYSNYKVDWYQQRPGKGPRFVMRVGTGGIVGSKGDGIPDRFSVLGSGLNRYLTIKNIQEEDESDYHCGADHGSGSNFVYVFGTGTKVTVLGGGGSGGGGSGGGGSQVQLVQSGTEVKKPGASVKVSCKASGSTFTSFFIHWVRQAPGQGLEWMGLINPSGGGTGYALKFQGRVTMTRDTSTSTVYMELSSLRSEDTAVYFCSRGNYEAFDLWGHGTMVTVSS
notes: VL-(G4S)3-VH
B2: 01P08A scFv (scFv)
scFv: QPVLTQPPSASASLGASVTLTCTLSSGYSNYKVDWYQQRPGKGPRFVMRVGTGGIVGSKGDGIPDRFSVLGSGLIRYLTIKNIQEEDESDYHCGADHGSGNNFVYVFGTGTKVTVLGGGGSGGGGSGGGGSQVQLQESGPGLVKPSETLSLTCIVSGGSISSYYWNWIRQPAGKGLEWIGRIYKSGNNIYNPSLQSRVTMSLDTSKNQFSLKLSSVTAADTAVYYCADGGNYFDWFDPWGQGTLVIVSS
notes: VL-(G4S)3-VH
B3: 13I04A scFv (scFv)
scFv: DIVMTQSPDSLAVSLGERATINCKSSQSVLYSSYNKNYLAWYQQKPGQPPKILIYWASTRESGVPDRFTGSGSGTDFTLTISSLQAEDVAVYYCQQYYSTMYSFGQGTKLEIKGGGGSGGGGSGGGGSEVQLVESGGGLVQPGGSLRLSCAASGFTSSNYWMSWVRQAPGKGLEWVANIKHDGSEKYFVDSVKGRFTISRDNANNSLYLQMNSLRDEDTAVYYCARMRPWYYDLWGRGTLVTVSS
notes: VL-(G4S)3-VH
B4: 13L15A scFv (scFv)
scFv: QPVLTQPPSASASLGASVTLTCTLSSGYSNYRVDWYQQRPGKGPRFVMRVGTGGIVGSKGDGIPDRFSVLGSGLNRYLTIKNIQEEDESDYHCGADHGSGSNFVWVFGGGTKLTVLGGGGSGGGGSGGGGSQAQLVQSGAEVKRPGASVKVSCKASGYTFISYLLHWVRQAPGQGLEWMVIINPSVGSTSYAQKFQGRVTMTRDTSTSTLYMELSSLRSEDTAVYYCARSSRNYWDGAFDIWGQGTMVTVSS
notes: VL-(G4S)3-VH
B5: Antibody #1 (Clone ID 01P08A) (antibody, V domains shown)
VH: QVQLQESGPGLVKPSETLSLTCIVSGGSISSYYWNWIRQPAGKGLEWIGRIYKSGNNIYNPSLQSRVTMSLDTSKNQFSLKLSSVTAADTAVYYCADGGNYFDWFDPWGQGTLVIVSS
VL: QPVLTQPPSASASLGASVTLTCTLSSGYSNYKVDWYQQRPGKGPRFVMRVGTGGIVGSKGDGIPDRFSVLGSGLIRYLTIKNIQEEDESDYHCGADHGSGNNFVYVFGTGTKVTVL
notes: Raised in AlivaMab mice immunised with human BCMA and purified on protein A. Detected with anti-mouse IgG
B6: Antibody #3 (Clone ID 13L15A) (antibody, V domains shown)
VH: QAQLVQSGAEVKRPGASVKVSCKASGYTFISYLLHWVRQAPGQGLEWMVIINPSVGSTSYAQKFQGRVTMTRDTSTSTLYMELSSLRSEDTAVYYCARSSRNYWDGAFDIWGQGTMVTVSS
VL: B5 VL with K32R, I75N, N101S, Y105W, T109G, V113L
notes: as for B5
B7: Antibody #5 (Clone ID 16M16A) (antibody, V domains shown)
VH: QVQLVQSGTEVKKPGASVKVSCKASGSTFTSFFIHWVRQAPGQGLEWMGLINPSGGGTGYALKFQGRVTMTRDTSTSTVYMELSSLRSEDTAVYFCSRGNYEAFDLWGHGTMVTVSS
VL: B5 VL with I75N, N101S
notes: as for B5
B8: Antibody #4 (Clone ID 14D14A) (antibody, V domains shown)
VH: QVQLQESGPGLVKPSETLSLTCTVSGGSISSYYWCWIRQSAGKGLEWIGRMYTSGSTNYNPSLKSRVTMSVDTSKNQFSLKLTSVTAADTAVYYCARERGYYYGGGGWIDPWGQGTLVTVSS
VL: not shown
notes: That clone differs in Kabat CDR-H1 (SYYWC against SYYWS)
B9: Antibody #2 (Clone ID 13I04A) (antibody, V domains shown)
VH: EVQLVESGGGLVQPGGSLRLSCAASGFTSSNYWMSWVRQAPGKGLEWVANIKHDGSEKYFVDSVKGRFTISRDNANNSLYLQMNSLRDEDTAVYYCARMRPWYYDLWGRGTLVTVSS
VL: not shown
notes: Raised in AlivaMab mice immunised with human BCMA and purified on protein A. Detected with anti-mouse IgG; also called 13104A
B10: Antibody #4 (Clone ID 14D14A_C) (antibody, V domains shown)
VH: B8 VH
VL: not shown
notes: Same VL as 14D14A; The VH differs in Kabat CDR-H1 (SYYWC)

target: T1, human B cell maturation antigen (BCMA), …; test: Retrogenix Cell Microarray, proteins expressed in human HEK293 cells

Row | binding result | Binder
1 | binds | B1
2 | binds | B2
3 | binds | B3
4 | binds | B4

target: T1, human B cell maturation antigen (BCMA), …; test: FACS titration (Scatchard analysis) on BCMA-expressing human NCI-H929 cells; anti-mouse IgG-A647 detection
Protocol: (§1) Antibodies were generated by immunizing AlivaMab mice with human BCMA and sequenced. The antibody sequences are shown in Table 3, Table 4, Table 5, Table 6, Table 7, and Table 8. […] Antibodies were titrated from 10 nM, with seven 1:5 dilutions. A positive control, mouse anti-human BCMA antibody (Biolegend, cat #357514) was tested in each experiment. Binding readout was measured via secondary detection, using an anti-mouse IgG-A647 nm (dilution 1:10000).

Row | EC50 | Binder
5 | 3.79 nM | B5
6 | 0.235 nM | B6
7 | 0.188 nM | B7
8 | 0.827 nM | B8
9 | 0.189 nM | B9

target: T1, human B cell maturation antigen (BCMA), …; test: FACS titration (Scatchard analysis) on HEK-293T cells stably expressing full-length human BCMA; anti-mouse IgG-A647 detection
Protocol: as §1

Row | EC50 | Binder
10 | 1.03 nM | B5
11 | 0.051 nM | B6
12 | 0.04 nM | B7
13 | 0.172 nM | B8
14 | 0.037 nM | B9

target: T1, human B cell maturation antigen (BCMA), …; test: FACS titration; cells not named in the heading (value equals the NCI-H929 EC50 of 14D14A in Table 2); heading of Table 6; cells not given

Row | EC50 | Binder
15 | 0.827 nM | B10

From US20260207747A1 (ARTIVA BIOTHERAPEUTICS, published 2026)
